Laboratory results published in publication PMC9201815, “Rapid Quantification of C. difficile Glutamate Dehydrogenase and Toxin B (TcdB) with a NanoBiT Split-Luciferase Assay” (Analytical Chemistry, 2022).

Assays:
[1] = target: Affimer 4; experiment: SPR; biotinylated Affimer/nanobody immobilised on a streptavidin chip, titrated with serial dilutions of analyte; fit to 1:1 Langmuir model
[2] = target: inactivated toxoid B (TxB) (C. difficile, inactivated toxoid (how it was inactivated is not stated)); experiment: SPR; settings: both partners purified

Sequence of Affimer 4 (main, as listed by the source): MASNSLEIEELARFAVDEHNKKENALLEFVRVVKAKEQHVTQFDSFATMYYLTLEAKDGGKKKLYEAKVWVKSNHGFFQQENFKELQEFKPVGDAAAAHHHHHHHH

Binder | Kd [1] | koff [1] | kon [1] | Kd [2] | koff [2] | kon [2]
C. difficile glutamate dehydrogenase (GDH) (enzyme) MSGKDVNVFEMAQSQVKNACDKLGMEPAVYELLKEPMRVIEVSIPVKMDDGSIKTFKGFRSQHNDAVGPTKGGIRFHQNVSRDEVKALSIWMTFKCSVTGIPYGGGKGGIIVDPSTLSQGELERLSRGYIDGIYKLIGEKVDVPAPDVNTNGQIMSWMVDEYNKLTGQSSIGVITGKPVEFGGSLGRTAATGFGVAVTAREAAAKLGIDMKKAKIAVQGIGNVGSYTVLNCEKLGGTVVAMAEWCKSEGSYAIYNENGLDGQAMLDYMKEHGNLLNFPGAKRISLEEFWASDVDIVIPAALENSITKEVAESIKAKLVCEAANGPTTPEADEVFAERGIVLTPDILTNAGGVTVSYFEWVQNLYGYYWSEEEVEQKEEIAMVKAFESIWKIKEEYNVTMREAAYMHSIKKVAEAMKLRGWY | 19 nM | 0.00081 s⁻¹ | 44000 M⁻¹ s⁻¹ | – | – | –
Nanobody E3 (VHH, also called TcdB nanobody E3) QVQLVESGGGLVQTGGSLRLSCASSGSIAGFETVTWSRQAPGKSLQWVASMTKTNNEIYSDSVKGRFIISRDNAKNTVYLQMNSLKPEDTGVYFCKGPELRGQGIQVTVSS | – | – | – | 2.5 nM | 0.00025 s⁻¹ | 100000 M⁻¹ s⁻¹
Nanobody 7F (VHH, also called TcdB nanobody 7F) VHH: QVQLVESGGGLVEAGGSLRLSCVVTGSSFSTSTMAWYRQPPGKQREWVASFTSGGAIKYTDSVKGRFTMSRDNAKKMTYLQMENLKPEDTAVYYCALHNAVSGSSWGRGTQVTVSS | – | – | – | 33 nM | 0.0009 s⁻¹ | 28000 M⁻¹ s⁻¹
